Consider two molecules from patent US20190271021A1.

Assay [1] has as its target human TrkB on CHO cells (CHO-K1-hTrkB/pSRE-Luc) (human) (UniProt Q16620). In words: cell-based or functional assay.
For assay [2] the target is unchanged. In words: cell-based or functional assay. The source holds these as a separate data set.

Read-outs that look alike come from different tables or passages of the source.

Chain of human TrkB on CHO cells (CHO-K1-hTrkB/pSRE-Luc) (human) (Q16620 32-822): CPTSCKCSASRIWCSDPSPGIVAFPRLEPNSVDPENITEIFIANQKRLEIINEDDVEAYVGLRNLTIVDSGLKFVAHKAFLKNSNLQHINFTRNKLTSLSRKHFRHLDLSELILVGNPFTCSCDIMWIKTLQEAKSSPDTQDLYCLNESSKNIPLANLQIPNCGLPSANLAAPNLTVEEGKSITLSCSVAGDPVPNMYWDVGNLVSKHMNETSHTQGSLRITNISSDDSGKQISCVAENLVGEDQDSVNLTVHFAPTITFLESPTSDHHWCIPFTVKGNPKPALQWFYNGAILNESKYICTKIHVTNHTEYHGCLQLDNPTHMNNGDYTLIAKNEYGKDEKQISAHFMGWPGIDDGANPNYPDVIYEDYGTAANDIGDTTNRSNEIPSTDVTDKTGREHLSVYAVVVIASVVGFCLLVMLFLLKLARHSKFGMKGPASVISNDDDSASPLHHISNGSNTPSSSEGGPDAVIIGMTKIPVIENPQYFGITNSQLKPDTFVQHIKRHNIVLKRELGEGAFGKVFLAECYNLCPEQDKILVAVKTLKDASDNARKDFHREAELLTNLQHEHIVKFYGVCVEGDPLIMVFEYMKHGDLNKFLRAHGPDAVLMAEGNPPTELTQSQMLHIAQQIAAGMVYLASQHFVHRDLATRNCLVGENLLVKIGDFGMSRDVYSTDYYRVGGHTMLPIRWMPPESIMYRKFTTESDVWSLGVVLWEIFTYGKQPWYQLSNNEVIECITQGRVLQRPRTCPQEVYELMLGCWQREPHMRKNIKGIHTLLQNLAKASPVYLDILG

B1: pre-pro-BDNF(-RGR)-T7-His6 (ligand)
chain: HSDPARRGELSVCDSISEWVTAADKKTAVDMSGGTVTVLEKVPVSKGQLKQYFYETKCNPMGYTKEGCRGIDKRHWNSQCRTTQSYVRALTMDSKKRIGWRFIRIDTSCVCTLTIKGSGMASMTGGQQMGHHHHHH
As for B1, in assay [1], the BDNF activity in TrkBluciferase assay, EC50 [% or nM] came out at 100%; the BDNF activity in TrkBluciferase assay, EC50 [nM] is 3.4 nM; the relative BDNF activity in TrkB luciferase assay, EC50 [%] turned out to be 100%. Moreover, in assay [2], the BDNF activity in TrkBluciferase assay, EC50 [nM] was 3 nM.

B2: pre-pro-BDNF(-RGD)-myc-His6 (ligand)
chain: APMKEANIRGQGGLAYPGVRTHGTLESVNGPKAGSRGLTSLADTFEHVIEELLDEDQKVRPNEENNKDADLYTSRVMLSSQVPLEPPLLFLLEEYKNYLDAANMSMRVRRHSDPARRGELSVCDSISEWVTAADKKTAVDMSGGTVTVLEKVPVSKGQLKQYFYETKCNPMGYTKEGCRGIDKRHWNSQCRTTQSYVRALTMDSKKRIGWRFIRIDTSCVCTLTIKGSGEQKLISEEDLGSGHHHHHH
As for B2, in assay [2], the BDNF activity in TrkBluciferase assay, EC50 [nM] was 0.36 nM.
